50 sequences from the supplement of paper PMC9112550, “Optimization of the antimicrobial peptide Bac7 by deep mutational scanning” (BMC Biology, 2022) can be followed below.
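Further: peptides expressed intracellularly from a pBAD plasmid library in pooled LB shake-flask culture, induced with 0.3% L-arabinose, DNA abundance read by NGS, three biological replicates, DESeq2 with apeglm shrinkage.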

The data set concerns Escherichia coli TOP10. Kind of data set: shrunken log2 fold change of peptide-encoding DNA abundance (4.5 h post-induction vs induction); higher = less antimicrobial activity (less host growth inhibition). The settings on record: time post-induction: 4.5 h; library: site-saturation at positions 5, 18, 19, 20.
Regarding RRIRNRPPRLPRPRPRPSIIPRP, the “shrunken log2 fold change” value was -0.856. Take RRIRDRPPRLPRPRPRPEHAPRP: the “shrunken log2 fold change” value was 0.294.

On to RRIRNRPPRLPRPRPRPQMKPRP, for which the “shrunken log2 fold change” value was -0.281.

As to RRIRYRPPRLPRPRPRPQQQPRP, the “shrunken log2 fold change” value was 0.00548. RRIRHRPPRLPRPRPRPDPQPRP: the “shrunken log2 fold change” value is 0.108. Under RRIRVRPPRLPRPRPRPSRGPRP stands 0.413; under RRIRERPPRLPRPRPRPVGQPRP, 0.129; under RRIRLRPPRLPRPRPRPFMVPRP, -0.606. On to RRIRARPPRLPRPRPRPDYRPRP, for which the “shrunken log2 fold change” value came out at 0.0573. For the sequence RRIRMRPPRLPRPRPRPVLTPRP, the “shrunken log2 fold change” value stood at 0.27. As to RRIRWRPPRLPRPRPRPSTSPRP, the “shrunken log2 fold change” value was -0.302. Consider RRIRQRPPRLPRPRPRPLMHPRP, for which the “shrunken log2 fold change” value is -0.00724. Consider RRIRARPPRLPRPRPRPMYTPRP, for which the “shrunken log2 fold change” value is -0.0517.

On to RRIRGRPPRLPRPRPRPKVEPRP, for which the “shrunken log2 fold change” value stood at 0.615. Regarding RRIRKRPPRLPRPRPRPCTWPRP, the “shrunken log2 fold change” value is -0.15. For the sequence RRIRFRPPRLPRPRPRPVSRPRP, the “shrunken log2 fold change” value is -0.145.

For the sequence RRIRSRPPRLPRPRPRPFLCPRP, the “shrunken log2 fold change” value is -0.634.

For the sequence RRIRGRPPRLPRPRPRPCSDPRP, the “shrunken log2 fold change” value is 0.0118. For RRIRERPPRLPRPRPRPTSWPRP, the “shrunken log2 fold change” value amounted to 0.0831. For the sequence RRIRRRPPRLPRPRPRPRESPRP, the “shrunken log2 fold change” value came to 0.59.

On to RRIRARPPRLPRPRPRPYQIPRP, for which the “shrunken log2 fold change” value was -0.385. As for RRIRMRPPRLPRPRPRPSRHPRP, the figure is 0.228. As for RRIRKRPPRLPRPRPRPTPHPRP, the figure is 0.653; as for RRIRNRPPRLPRPRPRPPPHPRP, 0.794.

With RRIRGRPPRLPRPRPRPNCEPRP, the “shrunken log2 fold change” value is 0.376. Regarding RRIRPRPPRLPRPRPRPQQRPRP, the “shrunken log2 fold change” value came to 0.0201. Regarding RRIRCRPPRLPRPRPRPDVMPRP, the “shrunken log2 fold change” value is -0.101.

In the case of RRIRRRPPRLPRPRPRPSEKPRP, the “shrunken log2 fold change” value is 0.51.

Consider RRIRRRPPRLPRPRPRPHAHPRP, for which the “shrunken log2 fold change” value is -0.00194. In the case of RRIRMRPPRLPRPRPRPAFDPRP, the “shrunken log2 fold change” value stood at 0.629.

Take RRIRLRPPRLPRPRPRPINFPRP: the “shrunken log2 fold change” value was -0.426.

With RRIRVRPPRLPRPRPRPWPFPRP, the “shrunken log2 fold change” value stood at 0.14. With RRIRKRPPRLPRPRPRPSTEPRP, the “shrunken log2 fold change” value came out at 0.136.

For the sequence RRIRARPPRLPRPRPRPGPCPRP, the “shrunken log2 fold change” value was 0.251. Consider RRIRSRPPRLPRPRPRPYHKPRP, for which the “shrunken log2 fold change” value was -0.404.

Consider RRIRLRPPRLPRPRPRPNECPRP, for which the “shrunken log2 fold change” value is -0.0751. As to RRIRRRPPRLPRPRPRPSCYPRP, the “shrunken log2 fold change” value is -0.0677. As to RRIRTRPPRLPRPRPRPIHIPRP, the “shrunken log2 fold change” value is 0.0274.

Turning to RRIRRRPPRLPRPRPRPAYMPRP, the “shrunken log2 fold change” value was 0.0857. As to RRIRERPPRLPRPRPRPSSFPRP, the “shrunken log2 fold change” value is -0.426. For the sequence RRIRQRPPRLPRPRPRPAKYPRP, the “shrunken log2 fold change” value is -0.0291. With RRIRERPPRLPRPRPRPMRPPRP, the “shrunken log2 fold change” value was determined as 0.772.

Turning to RRIRMRPPRLPRPRPRPKSFPRP, the “shrunken log2 fold change” value is -0.015. As for RRIRNRPPRLPRPRPRPMGCPRP, the figure is -0.187.

On to RRIRERPPRLPRPRPRPYKAPRP, for which the “shrunken log2 fold change” value was -0.123.

As for RRIRWRPPRLPRPRPRPDCFPRP, the “shrunken log2 fold change” value was found to be 1.32. RRIRERPPRLPRPRPRPAAMPRP: the “shrunken log2 fold change” value worked out at 0.102. Consider RRIRQRPPRLPRPRPRPTTVPRP, for which the “shrunken log2 fold change” value was -0.114.

On to RRIRIRPPRLPRPRPRPYCSPRP, for which the “shrunken log2 fold change” value is -0.0144. Regarding RRIRKRPPRLPRPRPRPKFWPRP, the “shrunken log2 fold change” value was determined as 0.798.
